Measurements taken from article PMC6391183.

Molecular target: Ago2 PAZ domain (human, UniProt Q9UKV8 227-371)
Experiment: ITC

Sequence of Ago2 PAZ domain (Q9UKV8 227-371): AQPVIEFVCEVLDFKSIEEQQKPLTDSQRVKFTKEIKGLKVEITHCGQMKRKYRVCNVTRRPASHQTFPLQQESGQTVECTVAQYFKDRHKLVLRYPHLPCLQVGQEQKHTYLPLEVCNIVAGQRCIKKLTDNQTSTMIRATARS

AGAGUCACGCUUU (ssRNA) [native RNA] gave a Kd of 0.6 µM.
